Numbering of substitutions follows the chain as printed. Blank lines part the entries; values can stand above or below the binder they belong to.
Assays:
Experiment in all cases: flow cytometry on transfected HEK293 cells;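 also: antibodies applied at 50 µg/ml, binding called specific when fluorescence exceeds the mean signal on a negative control chicken or mouse MET construct plus four SD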
Mouse Blade 1-3 = biological target: T1, Mouse Blade 1-3
T1 construct: human/mouse chimera on transfected HEK293 cells; also called AA 25-233
Experimental: (§1) Cut-off values defined as the average fluorescence signal of all antibodies tested at 50 μg/ml to the negative control chicken or mouse MET construct+four standard deviations were employed to discriminate background binding from specific binding for the domain exchange or blade exchange constructs.
T1 MET ECD-SV5-GPI fusion: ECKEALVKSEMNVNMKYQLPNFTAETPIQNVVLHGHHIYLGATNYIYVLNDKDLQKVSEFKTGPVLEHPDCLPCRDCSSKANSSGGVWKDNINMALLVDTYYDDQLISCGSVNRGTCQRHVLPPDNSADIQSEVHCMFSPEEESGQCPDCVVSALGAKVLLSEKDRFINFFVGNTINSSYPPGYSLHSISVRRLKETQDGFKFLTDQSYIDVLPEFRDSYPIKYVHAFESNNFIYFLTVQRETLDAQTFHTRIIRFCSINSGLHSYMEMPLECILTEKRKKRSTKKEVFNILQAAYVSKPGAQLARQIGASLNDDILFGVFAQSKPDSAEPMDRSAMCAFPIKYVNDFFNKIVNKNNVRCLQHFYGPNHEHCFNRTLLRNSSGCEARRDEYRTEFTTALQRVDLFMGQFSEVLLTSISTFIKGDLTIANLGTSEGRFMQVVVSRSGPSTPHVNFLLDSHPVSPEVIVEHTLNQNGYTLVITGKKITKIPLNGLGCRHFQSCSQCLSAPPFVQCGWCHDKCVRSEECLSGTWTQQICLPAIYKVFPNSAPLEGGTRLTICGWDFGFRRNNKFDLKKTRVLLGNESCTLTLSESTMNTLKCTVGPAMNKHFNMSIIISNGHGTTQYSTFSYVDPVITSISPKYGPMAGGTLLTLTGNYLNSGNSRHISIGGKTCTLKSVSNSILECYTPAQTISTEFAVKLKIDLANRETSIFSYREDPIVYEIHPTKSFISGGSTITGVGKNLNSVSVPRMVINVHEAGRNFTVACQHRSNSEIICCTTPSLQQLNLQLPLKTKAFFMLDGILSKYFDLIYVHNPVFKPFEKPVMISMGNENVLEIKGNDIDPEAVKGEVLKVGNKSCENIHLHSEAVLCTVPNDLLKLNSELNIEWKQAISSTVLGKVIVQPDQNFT

Mouse Blade 1-6 = biological target: T2, Mouse Blade 1-6
T2 construct: human/mouse chimera on transfected HEK293 cells; also called AA 25-479
Experimental: as §1
T2 MET ECD-SV5-GPI fusion: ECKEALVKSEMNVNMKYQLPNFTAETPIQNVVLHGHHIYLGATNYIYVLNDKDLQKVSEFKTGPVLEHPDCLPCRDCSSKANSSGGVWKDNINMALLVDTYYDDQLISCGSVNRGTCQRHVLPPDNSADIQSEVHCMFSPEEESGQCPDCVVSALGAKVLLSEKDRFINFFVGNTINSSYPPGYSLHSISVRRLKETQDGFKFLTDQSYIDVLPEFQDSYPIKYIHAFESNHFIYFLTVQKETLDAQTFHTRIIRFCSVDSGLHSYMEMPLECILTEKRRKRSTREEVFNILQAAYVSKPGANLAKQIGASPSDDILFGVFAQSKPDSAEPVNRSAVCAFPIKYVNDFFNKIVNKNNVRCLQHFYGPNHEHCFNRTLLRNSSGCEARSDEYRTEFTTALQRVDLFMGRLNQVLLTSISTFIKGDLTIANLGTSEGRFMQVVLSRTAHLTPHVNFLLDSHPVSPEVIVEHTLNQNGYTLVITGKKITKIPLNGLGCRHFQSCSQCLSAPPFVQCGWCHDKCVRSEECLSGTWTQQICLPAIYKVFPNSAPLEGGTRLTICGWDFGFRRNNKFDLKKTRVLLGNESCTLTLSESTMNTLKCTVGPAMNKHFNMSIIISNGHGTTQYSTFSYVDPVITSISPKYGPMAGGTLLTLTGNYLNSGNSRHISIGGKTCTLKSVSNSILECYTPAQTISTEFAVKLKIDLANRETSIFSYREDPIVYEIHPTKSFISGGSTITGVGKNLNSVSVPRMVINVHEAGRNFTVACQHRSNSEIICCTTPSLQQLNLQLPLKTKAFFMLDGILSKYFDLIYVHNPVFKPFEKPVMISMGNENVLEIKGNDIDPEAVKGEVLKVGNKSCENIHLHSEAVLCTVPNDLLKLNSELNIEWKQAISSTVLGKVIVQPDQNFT

LS4 = biological target: T3, LS4
T3 construct: human/mouse chimera on transfected HEK293 cells; also called AA 25-371
Experimental: as §1
T3 MET ECD-SV5-GPI fusion: T2 MET ECD-SV5-GPI fusion with S388R, R408Q, L409F, N410S, Q411E, L442V, T445S, A446G, H447P, L448S

binding result (Mouse Blade 1-3): no binding (tested: 50 µg/ml) | binding result (Mouse Blade 1-6): no binding (tested: 50 µg/ml) | binding result (LS4): no binding (tested: 50 µg/ml)
B1: humanized antibody 9338 (antibody, human IgG1, kappa, V domains shown)
VH: QVQLVQSGAEVKKPGSSVKVSCKASGYTFTSYWMHWVRQAPGQGLEWMGYINPSSGHIENNQKFKDRVTITADKSTSTAYMELSSLRSEDTAVYYCARGRFAYWGQGTLVTVSS
VL: EIVLTQSPATLSLSPGERATLSCSASSSVSSGYLYWYQQKPGQAPRLLIYSTSNLASGIPARFSGSGSGTDFTLTISSLEPEDFAVYYCHQWSSYPFTFGSGTKLEIKR
notes: also called Hu9338; hu9338

binding result (Mouse Blade 1-3): no binding (tested: 50 µg/ml) | binding result (Mouse Blade 1-6): no binding (tested: 50 µg/ml) | binding result (LS4): no binding (tested: 50 µg/ml)
B2: humanized antibody 9006 (antibody, human IgG1, kappa, V domains shown)
VH: QVQLVQSGSELKKPGASVKVSCKASGYTFTNFRMNWVKQAPGQGLKWMGWINTYTGEPTYVDDLKGRFVFSLDTSVSTAYLQISSLKAEDTAVYYCARKGIARAMDYWGQGTTVTVSS
VL: DIVMTQSPDSLAVSLGERATINCKSSQSLLDSGNQKNYLAWYQQKPGQPPKLLIFGASTRESGVPDRFSGSGSGTDFTLTISSLQAEDVAVYYCQNDHSYPYTFGQGTKLEIKR
notes: also called Hu9006; hu9006
